As usually defined, the Km is the concentration of substrate that gives half-maximal velocity.

Here are results for 1 protein from patent EP0155825A2, “Novel choline derivatives” (NITTO BOSEKI CO., LTD., priority 1984, dated 1985).

Substrate in this data set: C[N+](C)(C)CCOC(=O)c1ccc(O)c(O)c1
Briefly: Km of the substrate for cholinesterase (UV method, absorbance decrease at 340 nm). It counts as biochemical. The following applies: other: 50 mM TRIS-maleate buffer (pH 8.20); compound as substrate of Ch-E; pH 8.2; 37.0 °C. The source says:
Fig. 1 represents UV spectra of 3,4-dihydroxybenzoylcholine iodide (hereinafter referred to briefly as DHBCI) and 3,4-dihydroxybenzoic acid. When DHBCI is hydrolyzed by the action of Ch-E, there are formed choline and 3,4-dihydroxybenzoic acid. […] Therefore, when DHBCI, a novel compound according to the present invention, is used as substrate in the assay of enzymatic activity of Ch-E and the reaction is traced through the absorbance at a wavelength of 340-360 nm, it is possible to follow precisely the decrease in substrate DHBCI. In the previously mentioned method of W. Kalow, since the measurement is done at a shorter wavelength of 240 nm, the initial absorption is interfered with by the blood constituents, whereas at a wavelength of 340-360 nm, the interference is very little and the conditions of reaction can be set up more easily. […]
The assay was performed by adjusting the substrate concentration to 0.25 mM with a 50 mM TRIS-maleate buffer (pH 8.20), preheating for about 5 minutes 2.0 mt of-the adjusted solution to 37°C, admixing the preheated solution with 200 µℓ of a serum, and immediately measuring the absorbance decrease at 340 nm of the mixture at 37°C. […] The activity of Ch-E was calculated from the following equation: [formula] • ^* ΔO.D.: Absorbance change per minute at a wavelength of 340 nm. • ^** Molar absorbance at 340 nm: 2960

B1: cholinesterase (enzyme code number of 3.1.1.8; referred to briefly as Ch-E) (Homo sapiens) (protein)
chain: EDDIIIATKNGKVRGMNLTVFGGTVTAFLGIPYAQPPLGRLRFKKPQSLTKWSDIWNATKYANSCCQNIDQSFPGFHGSEMWNPNTDLSEDCLYLNVWIPAPKPKNATVLIWIYGGGFQTGTSSLHVYDGKFLARVERVIVVSMNYRVGALGFLALPGNPEAPGNMGLFDQQLALQWVQKNIAAFGGNPKSVTLFGESAGAASVSLHLLSPGSHSLFTRAILQSGSFNAPWAVTSLYEARNRTLNLAKLTGCSRENETEIIKCLRNKDPQEILLNEAFVVPYGTPLSVNFGPTVDGDFLTDMPDILLELGQFKKTQILVGVNKDEGTAFLVYGAPGFSKDNNSIITRKEFQEGLKIFFPGVSEFGKESILFHYTDWVDDQRPENYREALGDVVGDYNFICPALEFTKKFSEWGNNAFFYYFEHRSSKLPWPEWMGVMHGYEIEFVFGLPLERRDNYTKAEEILSRSIVKRWANFAKYGNPNETQNNSTSWPVFKSTEQKYLTLNTESTRIMTKLRAQQCRFWTSFFPKVLEMTGNIDEAEWEWKAGFHRWNNYMMDWKNQFNDYTSKKESCVGL
notes: admixing the preheated solution with 200 µℓ of a serum; tissue Nissui Seiyaku Co. consera I; host or cells: serum (commercial control serum)
In the case of B1, the Michaelis constant (Km) was 26 µM.
